From patent US8759300 (RESEARCH FOUNDATION FOR THE STATE UNIVERSITY OF NEW YORK, dated 2014)

B1: peptide 4 (FN2043-2067) QPSVGQQMIFEEHGFRRTTPPTTAT (peptide)
peptide: QPSVGQQMIFEEHGFRRTTPPTTAT
notes: also called P4
B2: peptide 2 (FN680-704) QLISIQQYGHQEVTRFDFTTTSTST (peptide)
peptide: QLISIQQYGHQEVTRFDFTTTSTST
notes: also called P2
B3: peptide 3 NGQTPIQRTIKPDVRSYTITGLQPGT (peptide)
peptide: NGQTPIQRTIKPDVRSYTITGLQPGT
notes: also called P3; FN1852-877 (so in the source)
B4: synthetic peptide homologous to PDGF-BB, CKTRTEVFEISRRLI (peptide)
peptide: CKTRTEVFEISRRLI
B5: IIICS, variably-spliced domain of fibronectin (other, human)
chain: MGSDELPQLVTLPHPNLHGPEILDVPSTVQKTPFVTHPGYDTGNGIQLPGTSGQQPSVGQQMIFEEHGFRRTTPPTTATPIRHRPRPYPPNVGEEIQIGHIPREDVDYHLYPHGPGLNPNASTTSHHHHHHC
notes: domain: IIICS; The IIICS construct is not described separately
B6: synthetic peptide homologous to TGF-β1, CCVRQLYIDFRKDLG (peptide)
peptide: CCVRQLYIDFRKDLG
B7: peptide 1 (FN634-658) QPSHISKYILRWRPKNSVGRWKEAT (peptide)
peptide: QPSHISKYILRWRPKNSVGRWKEAT
notes: A Cys-tagged form was used in the FN-null cell assay; also called P1
B8: EGF (ligand, UniProt P01133 971-1023, looked up)
chain: NSDSECPLSHDGYCLHDGVCMYIEALDKYACNCVVGYIGERCQYRDLKWWELR

Key:
FGF-1 = FGF-1 (UniProt P05230 16-155, limits assumed); assay: equilibrium and kinetic binding
Sequence of FGF-1 (P05230 16-155 limits assumed): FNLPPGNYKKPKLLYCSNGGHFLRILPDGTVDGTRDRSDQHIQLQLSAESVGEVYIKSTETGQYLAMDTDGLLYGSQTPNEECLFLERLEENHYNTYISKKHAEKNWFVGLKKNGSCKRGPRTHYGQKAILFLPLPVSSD

TGF-α = TGF-α (UniProt P01135 40-89); assay: equilibrium and kinetic binding
Sequence of TGF-α (P01135 40-89 limits assumed): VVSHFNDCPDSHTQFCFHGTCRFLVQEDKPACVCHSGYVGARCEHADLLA

EGF = target: B8; assay: equilibrium and kinetic binding
[1] = target: T1, basic fibroblast growth factor (bFGF, FGF-2) (human, UniProt P09038 143-288, limits assumed); assay: peptide binding to the GF
T1 sequence (P09038 143-288 limits assumed): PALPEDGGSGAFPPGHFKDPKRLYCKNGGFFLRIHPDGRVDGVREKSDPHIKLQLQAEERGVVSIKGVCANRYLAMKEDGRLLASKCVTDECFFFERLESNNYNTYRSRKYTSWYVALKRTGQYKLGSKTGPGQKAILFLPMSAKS

[2] = target: T2, intact human plasma fibronectin (FN) (human, UniProt P02751 32-2477); assay: competition: I-125 PDGF-BB bound to intact human plasma FN adsorbed on plastic (0.125 µM, blocked with 2% BSA), 25°C, 2 h, with rising peptide; % of binding without peptide, n=3 [right panel]
T2 construct: Adsorbed to plastic or coupled to agarose beads in the assays; The background calls plasma FN a disulfide-linked dimer; also called intact FN
T2 sequence (P02751 other isoform, or with tags, fused parts or gaps limits assumed): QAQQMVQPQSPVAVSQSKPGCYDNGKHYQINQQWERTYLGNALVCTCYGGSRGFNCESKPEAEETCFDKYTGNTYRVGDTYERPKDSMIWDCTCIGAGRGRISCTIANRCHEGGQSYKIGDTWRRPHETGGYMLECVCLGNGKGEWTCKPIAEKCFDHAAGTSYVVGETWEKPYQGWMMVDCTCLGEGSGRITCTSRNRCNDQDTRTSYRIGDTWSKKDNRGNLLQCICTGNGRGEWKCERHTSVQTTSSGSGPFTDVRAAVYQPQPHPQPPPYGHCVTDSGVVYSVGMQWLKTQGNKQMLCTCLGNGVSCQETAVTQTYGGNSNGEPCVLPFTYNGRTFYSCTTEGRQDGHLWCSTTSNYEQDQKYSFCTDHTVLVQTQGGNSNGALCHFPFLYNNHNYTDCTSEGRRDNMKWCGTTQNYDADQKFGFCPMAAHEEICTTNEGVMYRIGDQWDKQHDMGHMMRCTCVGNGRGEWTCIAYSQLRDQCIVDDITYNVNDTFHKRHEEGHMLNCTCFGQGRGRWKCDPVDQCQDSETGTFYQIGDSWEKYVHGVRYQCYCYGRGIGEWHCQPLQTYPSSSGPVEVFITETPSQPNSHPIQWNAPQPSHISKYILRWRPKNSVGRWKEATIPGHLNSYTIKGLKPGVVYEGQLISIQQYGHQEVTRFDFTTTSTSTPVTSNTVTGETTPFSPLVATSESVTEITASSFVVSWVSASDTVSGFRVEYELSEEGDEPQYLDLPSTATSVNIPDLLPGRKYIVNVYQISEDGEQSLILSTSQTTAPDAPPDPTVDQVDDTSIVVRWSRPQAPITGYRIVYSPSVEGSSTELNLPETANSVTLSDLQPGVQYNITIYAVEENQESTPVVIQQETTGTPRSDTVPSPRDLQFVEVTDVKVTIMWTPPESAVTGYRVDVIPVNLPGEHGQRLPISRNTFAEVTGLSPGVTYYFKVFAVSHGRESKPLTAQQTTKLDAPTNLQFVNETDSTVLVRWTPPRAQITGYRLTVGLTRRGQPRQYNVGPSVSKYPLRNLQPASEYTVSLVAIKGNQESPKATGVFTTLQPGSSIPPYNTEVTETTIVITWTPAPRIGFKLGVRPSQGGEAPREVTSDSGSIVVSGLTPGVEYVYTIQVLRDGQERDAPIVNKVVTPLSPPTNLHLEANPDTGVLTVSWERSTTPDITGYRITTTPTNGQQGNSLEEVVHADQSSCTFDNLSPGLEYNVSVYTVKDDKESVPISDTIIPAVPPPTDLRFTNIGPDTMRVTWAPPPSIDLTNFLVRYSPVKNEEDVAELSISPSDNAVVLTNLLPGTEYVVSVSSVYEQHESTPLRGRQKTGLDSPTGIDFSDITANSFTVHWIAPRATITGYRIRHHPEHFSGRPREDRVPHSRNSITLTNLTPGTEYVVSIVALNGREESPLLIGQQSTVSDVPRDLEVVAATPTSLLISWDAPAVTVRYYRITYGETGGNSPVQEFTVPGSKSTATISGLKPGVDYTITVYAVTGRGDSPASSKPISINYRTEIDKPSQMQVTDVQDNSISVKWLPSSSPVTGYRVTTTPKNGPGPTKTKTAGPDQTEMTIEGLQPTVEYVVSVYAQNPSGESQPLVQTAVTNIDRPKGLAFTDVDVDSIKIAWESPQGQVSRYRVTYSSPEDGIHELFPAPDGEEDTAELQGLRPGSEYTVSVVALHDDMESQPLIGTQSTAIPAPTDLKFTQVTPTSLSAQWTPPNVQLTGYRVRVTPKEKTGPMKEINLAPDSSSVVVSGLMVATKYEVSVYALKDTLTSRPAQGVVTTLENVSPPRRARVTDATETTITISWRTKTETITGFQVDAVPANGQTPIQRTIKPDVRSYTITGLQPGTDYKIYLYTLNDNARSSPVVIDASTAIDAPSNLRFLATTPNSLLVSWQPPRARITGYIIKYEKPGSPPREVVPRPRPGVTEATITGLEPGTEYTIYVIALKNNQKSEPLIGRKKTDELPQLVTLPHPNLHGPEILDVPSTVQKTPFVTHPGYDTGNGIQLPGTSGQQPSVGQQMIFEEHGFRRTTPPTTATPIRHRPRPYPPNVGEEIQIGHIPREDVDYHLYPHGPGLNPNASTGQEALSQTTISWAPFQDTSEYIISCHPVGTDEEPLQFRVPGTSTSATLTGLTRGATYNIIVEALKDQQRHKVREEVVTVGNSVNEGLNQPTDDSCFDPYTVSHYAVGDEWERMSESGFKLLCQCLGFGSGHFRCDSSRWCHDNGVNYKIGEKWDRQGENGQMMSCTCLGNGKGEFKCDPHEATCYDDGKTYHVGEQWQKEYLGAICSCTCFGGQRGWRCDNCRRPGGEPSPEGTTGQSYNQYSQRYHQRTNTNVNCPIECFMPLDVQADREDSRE
Experimental: (§1) Figure 9: FIG. 9. Inhibition of TGF-β1 and PDGF-BB binding to intact human plasma FN with TGF-β1 and PDGF-BB FN-binding peptides, respectively. FN was adsorbed onto tissue culture plastic at a concentration of 0.125 μM and then excess protein-binding sites of the plastic blocked with 2% bovine serum albumin. Growth factor labeled with I^125 was incubated with FN-coated plates at 25° C. for 2 hours in the presence or absence of peptide. Data was calculated as [(GF binding in presence of peptide–background)/(GF binding in absence of peptide-background)]×100. n=3.
(§2) Two of these synthetic peptides (homologous to TGF-β1 and homologous to PDGF-BB) inhibit TGF-β1 and PDGF-BB binding to FN respectively (FIG. 9). Inhibition of TGF-β1 and PDGF-BB binding to intact human plasma FN was determined as follows. FN was adsorbed onto tissue culture plastic at a concentration of 0.125 μM and then excess protein-binding sites of the plastic blocked with 2% bovine serum albumin. Growth factor labeled with I^125 was incubated with FN-coated plates at 25° C. for 2 hours in the presence or absence of peptide. For example, relative binding of TGF-β1 to immobilized FN was determined for increasing concentrations of the synthetic peptide homologous to TGF-β1. […] For example, relative binding of PDGF-BB to immobilized FN was determined for increasing concentrations of the synthetic peptide homologous to PDGF-BB. […]

[3] = target: T1, basic fibroblast growth factor (bFGF, …); assay: method not restated in the sentence
[4] = target: T1, basic fibroblast growth factor (bFGF, …); assay: equilibrium or kinetic binding, not said which
[5] = target: T2, intact human plasma fibronectin (FN); assay: competition: I-125 TGF-β1 bound to intact human plasma FN adsorbed on plastic (0.125 µM, blocked with 2% BSA), 25°C, 2 h, with rising peptide; % of binding without peptide, n=3 [left panel]
Experimental: as §1, §2

[6] = target: T3, FNIII12-V15 (HV), composite heparinII-binding and variably-spliced IIICS domains of fibronectin (human, UniProt P02751 1812-2288); assay: plasmon resonance modulation
T3 construct: domain: FNIII12-V15; Recombinant, from E. coli; Some constructs carry GST at the C-terminus

FNIII1-7 = target: T4, FNIII1-7 (human, UniProt P02751 610-1266, limits assumed); assay: equilibrium and kinetic binding
T4 construct: domain: FNIII1-7; This construct is not described separately
T4 sequence (P02751 other isoform, or with tags, fused parts or gaps limits assumed): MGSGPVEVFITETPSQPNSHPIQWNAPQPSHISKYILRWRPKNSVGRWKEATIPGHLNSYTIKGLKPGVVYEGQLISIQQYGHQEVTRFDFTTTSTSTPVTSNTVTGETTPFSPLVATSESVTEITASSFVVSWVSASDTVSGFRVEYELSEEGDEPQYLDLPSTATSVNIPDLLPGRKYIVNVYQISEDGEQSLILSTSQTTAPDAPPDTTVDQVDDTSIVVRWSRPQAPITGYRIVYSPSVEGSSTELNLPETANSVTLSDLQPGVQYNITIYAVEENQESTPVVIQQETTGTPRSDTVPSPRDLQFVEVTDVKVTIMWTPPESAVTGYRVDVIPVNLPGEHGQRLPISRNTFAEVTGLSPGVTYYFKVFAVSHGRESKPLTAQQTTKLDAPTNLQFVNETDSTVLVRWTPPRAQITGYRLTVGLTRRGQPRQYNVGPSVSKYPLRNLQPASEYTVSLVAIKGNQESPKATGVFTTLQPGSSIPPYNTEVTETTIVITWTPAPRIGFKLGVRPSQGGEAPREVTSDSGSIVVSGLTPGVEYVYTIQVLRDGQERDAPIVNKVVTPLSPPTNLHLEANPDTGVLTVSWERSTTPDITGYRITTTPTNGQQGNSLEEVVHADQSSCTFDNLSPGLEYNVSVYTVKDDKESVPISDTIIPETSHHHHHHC

[7] = target: T5, FN70, the 70 kDa amino terminus of fibronectin (UniProt P02751 32-608, limits assumed); assay: equilibrium and kinetic binding
T5 construct: domain: FN70 (70 kDa amino terminus); also called amino-terminal end of FN
T5 sequence (P02751 32-608 limits assumed): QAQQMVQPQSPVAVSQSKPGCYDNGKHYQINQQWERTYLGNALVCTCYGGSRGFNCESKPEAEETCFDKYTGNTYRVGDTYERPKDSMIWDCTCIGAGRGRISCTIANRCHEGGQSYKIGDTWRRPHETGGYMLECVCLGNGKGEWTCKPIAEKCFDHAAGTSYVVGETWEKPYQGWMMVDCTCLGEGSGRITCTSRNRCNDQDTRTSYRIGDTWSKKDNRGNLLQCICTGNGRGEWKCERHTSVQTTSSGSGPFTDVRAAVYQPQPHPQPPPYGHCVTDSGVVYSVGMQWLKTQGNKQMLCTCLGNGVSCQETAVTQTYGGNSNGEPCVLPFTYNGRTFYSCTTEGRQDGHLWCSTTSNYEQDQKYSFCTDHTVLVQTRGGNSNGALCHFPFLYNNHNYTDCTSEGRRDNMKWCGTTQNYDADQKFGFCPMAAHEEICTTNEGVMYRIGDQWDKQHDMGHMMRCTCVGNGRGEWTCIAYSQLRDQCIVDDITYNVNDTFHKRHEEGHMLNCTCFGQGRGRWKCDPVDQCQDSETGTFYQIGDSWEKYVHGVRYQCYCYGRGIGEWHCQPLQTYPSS

[8] = target: T6, FNIII8-11 (C), classic cell-binding domain of fibronectin containing RGD (human, UniProt P02751 1358-1721); assay: equilibrium and kinetic binding
T6 construct: domain: FNIII8-11; Recombinant

FNIII3-6 = target: T7, FNIII3-6 (human, UniProt P02751 813-1175, limits assumed); assay: equilibrium and kinetic binding
T7 construct: domain: FNIII3-6; Recombinant; also called FNII3-6 [sic]
T7 sequence (P02751 other isoform, or with tags, fused parts or gaps limits assumed): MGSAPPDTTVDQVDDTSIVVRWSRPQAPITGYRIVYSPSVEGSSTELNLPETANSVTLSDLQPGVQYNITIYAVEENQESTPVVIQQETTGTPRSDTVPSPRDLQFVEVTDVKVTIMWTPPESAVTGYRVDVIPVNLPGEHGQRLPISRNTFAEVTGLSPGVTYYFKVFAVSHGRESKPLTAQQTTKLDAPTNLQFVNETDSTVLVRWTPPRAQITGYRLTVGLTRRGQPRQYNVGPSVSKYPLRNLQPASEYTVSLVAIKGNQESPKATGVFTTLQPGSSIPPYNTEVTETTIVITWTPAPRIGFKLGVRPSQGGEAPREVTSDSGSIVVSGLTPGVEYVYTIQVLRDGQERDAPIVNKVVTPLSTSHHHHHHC

[9] = target: B5; assay: binding to FN functional domains
FNIII1-11 = target: T8, FNIII1-11 (human, UniProt P02751-8 610-1630); assay: binding to FN functional domains
T8 construct: domain: FNIII1-11; Recombinant

FNIII2 = target: T9, FNIII2 (human, UniProt P02751 722-812, limits assumed); assay: binding to FN functional domains
T9 construct: domain: FNIII2; Recombinant

FNIII1 = target: T10, FNIII1 (human, UniProt P02751 610-702, limits assumed); assay: binding to FN functional domains
T10 construct: domain: FNIII1; Recombinant; also called FNIIII [sic]
T10 sequence (P02751 other isoform, or with tags, fused parts or gaps limits assumed): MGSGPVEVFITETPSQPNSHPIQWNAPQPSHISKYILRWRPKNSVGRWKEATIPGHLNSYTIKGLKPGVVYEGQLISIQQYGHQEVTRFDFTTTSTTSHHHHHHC

[10] = target: T11, FNIII12-15 (H), heparinII-binding domain of fibronectin (human, UniProt P02751-10 1631-1987); assay: binding to FN functional domains
T11 construct: domain: FNIII12-15; Recombinant

FNIII1-2 = target: T12, FNIII1-2 (human, UniProt P02751 610-812, limits assumed); assay: binding to FN functional domains
T12 construct: domain: FNIII1-2; Recombinant
T12 sequence (P02751 other isoform, or with tags, fused parts or gaps limits assumed): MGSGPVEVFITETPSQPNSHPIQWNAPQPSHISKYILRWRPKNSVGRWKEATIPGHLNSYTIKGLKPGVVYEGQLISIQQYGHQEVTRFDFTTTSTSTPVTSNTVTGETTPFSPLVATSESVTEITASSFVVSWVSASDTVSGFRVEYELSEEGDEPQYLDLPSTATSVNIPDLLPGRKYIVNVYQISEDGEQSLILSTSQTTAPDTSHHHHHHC

FNIII12-14 = target: T13, FNIII12-14 (human, UniProt P02751 1812-2082); assay: binding to FN functional domains
T13 construct: domain: FNIII12-14; Recombinant
T13 sequence (P02751 other isoform, or with tags, fused parts or gaps limits assumed): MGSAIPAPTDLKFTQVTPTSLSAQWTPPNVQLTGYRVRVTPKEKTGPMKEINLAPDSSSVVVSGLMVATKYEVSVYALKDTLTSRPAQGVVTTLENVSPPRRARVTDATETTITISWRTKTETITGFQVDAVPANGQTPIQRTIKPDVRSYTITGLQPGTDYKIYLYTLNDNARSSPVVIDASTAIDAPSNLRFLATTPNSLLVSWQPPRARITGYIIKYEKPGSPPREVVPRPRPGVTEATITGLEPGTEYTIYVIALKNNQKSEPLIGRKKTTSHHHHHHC

[11] = target: T2, intact human plasma fibronectin (FN); assay: equilibrium binding to FN adsorbed to a surface or coupled to agarose beads

Binder | binding result (FGF-1) | binding result (TGF-α) | binding result (EGF) | binding result [1] | also measured
B1 | no binding | no binding | no binding | binds | –
B2 | no binding | no binding | no binding | binds | –
B3 | no binding | no binding | no binding | binds | –
B4 | – | – | – | – | binding result [2]: binds
B5 | no binding | – | – | – | Kd [3]: ~100 nM; Kd [4]: 58 nM
B6 | – | – | – | – | IC50 (read off the curve) [5]: ~8000 nM
B7 | no binding | no binding | no binding | binds | –
B8 | – | – | – | – | binding result [6]: no binding; binding result (FNIII1-7): no binding; binding result [7]: no binding; binding result [8]: no binding; binding result (FNIII3-6): no binding; binding result [9]: no binding; binding result (FNIII1-11): no binding; binding result (FNIII2): no binding; binding result (FNIII1): no binding; binding result [10]: no binding; binding result (FNIII1-2): no binding; binding result (FNIII12-14): no binding; binding result [11]: no binding
